The target of data set [1] is ParD antitoxin (ParD1) of Caulobacter crescentus (Caulobacter crescentus). The data set is described as follows: SEC.
The data set “crystal structure” concerns the molecule itself. The data set is described as follows: crystal structure.

What is called stoichiometry N is the number of molecules, sites or subunits per partner or assembly.

The molecule “ParD antitoxin (ParD1) of Caulobacter crescentus (natural protein)” had a stoichiometry N in data set [1] of 2.

B1: His6-ParE toxin (ParE1) of Caulobacter crescentus (natural protein, UniProt Q9A9T8 1-96, looked up)
chain: MKPYRLSRRAKADLDDIWTYSEQRWGVEQAADYARELQATIEMIAEHPGMGQPDENLRAGYRRCASGSHVVFYRVGVRVEIIRVLHQSMNARAHLG
modifications: selenomethionine-labeled in the crystal and SAXS samples
B1: in the data set “crystal structure”, the binding result is listed as “binds”.

The values above are taken from PMC2846751 (Biochemistry, 2010).
